{"source": "patent US20170336407A1", "assay_in_all_cases": "cell-based or functional assay", "key": {"[1]": {"molecular_target": "T1, Saccharomyces cerevisiae Ste2 pheromone receptor, wild type (Saccharomyces cerevisiae) (UniProt D6VTK4)", "T1 sequence": "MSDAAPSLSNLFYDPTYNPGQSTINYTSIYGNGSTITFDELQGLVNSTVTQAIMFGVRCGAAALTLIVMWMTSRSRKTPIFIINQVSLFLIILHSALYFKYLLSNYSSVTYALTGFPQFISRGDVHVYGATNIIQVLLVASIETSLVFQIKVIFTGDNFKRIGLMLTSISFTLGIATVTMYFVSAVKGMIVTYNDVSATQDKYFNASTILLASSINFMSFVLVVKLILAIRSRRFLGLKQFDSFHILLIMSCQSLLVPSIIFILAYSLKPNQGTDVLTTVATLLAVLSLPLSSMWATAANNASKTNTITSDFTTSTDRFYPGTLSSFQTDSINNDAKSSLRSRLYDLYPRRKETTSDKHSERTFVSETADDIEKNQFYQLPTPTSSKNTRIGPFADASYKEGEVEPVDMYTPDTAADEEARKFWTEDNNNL"}, "[2]": {"molecular_target": "Fusarium graminearum fungal pheromone GPCR (Fusarium graminearum)"}, "[3]": {"molecular_target": "T2, Candida albicans fungal pheromone GPCR (Candida albicans)", "T2 sequence": "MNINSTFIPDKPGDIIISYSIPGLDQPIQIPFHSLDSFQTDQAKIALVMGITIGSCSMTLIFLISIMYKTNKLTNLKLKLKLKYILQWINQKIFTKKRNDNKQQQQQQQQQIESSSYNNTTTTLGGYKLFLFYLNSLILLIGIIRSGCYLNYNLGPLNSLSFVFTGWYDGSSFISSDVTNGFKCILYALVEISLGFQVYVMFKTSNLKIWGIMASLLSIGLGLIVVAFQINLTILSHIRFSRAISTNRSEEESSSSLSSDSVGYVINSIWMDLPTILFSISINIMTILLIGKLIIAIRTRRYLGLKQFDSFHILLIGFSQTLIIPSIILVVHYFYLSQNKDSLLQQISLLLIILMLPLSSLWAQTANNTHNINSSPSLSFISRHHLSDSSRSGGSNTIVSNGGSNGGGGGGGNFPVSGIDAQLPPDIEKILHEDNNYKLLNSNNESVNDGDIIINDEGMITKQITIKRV"}, "[4]": {"molecular_target": "Magnaporthe oryzea fungal pheromone GPCR (Magnaporthe oryzea)"}, "[5]": {"molecular_target": "T3, Candida glabrata fungal pheromone GPCR (Candida glabrata)", "T3 sequence": "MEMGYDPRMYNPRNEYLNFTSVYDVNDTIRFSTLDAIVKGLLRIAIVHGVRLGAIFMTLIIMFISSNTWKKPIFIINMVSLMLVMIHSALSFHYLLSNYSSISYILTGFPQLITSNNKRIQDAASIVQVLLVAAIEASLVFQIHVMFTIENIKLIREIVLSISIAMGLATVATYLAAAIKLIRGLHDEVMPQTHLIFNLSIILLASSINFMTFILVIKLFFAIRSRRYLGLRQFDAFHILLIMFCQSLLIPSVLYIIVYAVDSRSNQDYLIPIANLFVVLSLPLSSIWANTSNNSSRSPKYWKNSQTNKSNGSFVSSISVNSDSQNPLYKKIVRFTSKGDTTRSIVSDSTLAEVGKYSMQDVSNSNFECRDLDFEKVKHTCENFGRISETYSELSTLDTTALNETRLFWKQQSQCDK"}, "[6]": {"molecular_target": "Paracoccidioides brasiliensis fungal pheromone GPCR (Paracoccidioides brasiliensis)"}, "[7]": {"molecular_target": "T4, Botrytis cinerea fungal pheromone GPCR (Botrytis cinerea)", "T4 sequence": "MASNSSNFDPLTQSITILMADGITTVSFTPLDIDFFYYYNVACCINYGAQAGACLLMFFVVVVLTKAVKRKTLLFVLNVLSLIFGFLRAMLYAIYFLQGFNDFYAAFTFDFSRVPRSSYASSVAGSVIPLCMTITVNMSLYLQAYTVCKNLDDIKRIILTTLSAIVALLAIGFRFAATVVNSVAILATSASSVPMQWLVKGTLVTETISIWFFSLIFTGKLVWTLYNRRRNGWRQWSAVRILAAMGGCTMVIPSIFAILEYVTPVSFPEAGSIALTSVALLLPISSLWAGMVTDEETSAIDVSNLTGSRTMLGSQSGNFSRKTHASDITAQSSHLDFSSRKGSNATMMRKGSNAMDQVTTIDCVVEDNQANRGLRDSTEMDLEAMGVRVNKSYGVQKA"}, "[8]": {"molecular_target": "T5, Lodderomyces elongisporous fungal pheromone GPCR (Lodderomyces elongisporous)", "T5 sequence": "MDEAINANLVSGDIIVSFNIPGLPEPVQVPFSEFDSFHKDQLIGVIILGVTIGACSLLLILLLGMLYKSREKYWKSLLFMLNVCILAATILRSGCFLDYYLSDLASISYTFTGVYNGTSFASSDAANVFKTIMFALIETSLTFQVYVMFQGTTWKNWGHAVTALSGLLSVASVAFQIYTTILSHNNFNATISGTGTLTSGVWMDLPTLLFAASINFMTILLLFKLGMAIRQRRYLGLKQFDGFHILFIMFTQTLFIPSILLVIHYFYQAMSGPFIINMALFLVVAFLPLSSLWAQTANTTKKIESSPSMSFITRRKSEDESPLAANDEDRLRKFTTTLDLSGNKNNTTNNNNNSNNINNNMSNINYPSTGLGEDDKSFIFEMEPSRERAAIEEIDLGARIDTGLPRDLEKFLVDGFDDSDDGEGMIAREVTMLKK"}}}
{"substance": "S. cerevisiae α-Factor, wild type, … (peptide)", "values": [{"measurement": "EC50 (biosensor strain, fluorescence)", "setting": "[1]", "value": 190, "unit": "nM"}]}
{"substance": "Fusarium graminearum mating peptide pheromone […]", "values": [{"measurement": "EC50 (fluorescent reporter)", "setting": "[2]", "value": 230, "unit": "nM"}]}
{"substance": "Candida albicans mating peptide pheromone …", "values": [{"measurement": "EC50 (biosensor strain, fluorescence)", "setting": "[3]", "value": 4, "unit": "nM"}, {"measurement": "EC50 (fluorescent reporter)", "setting": "[3]", "value": 51, "unit": "nM"}]}
{"substance": "Magnaporthe oryzea mating peptide pheromone […]", "values": [{"measurement": "EC50 (fluorescent reporter)", "setting": "[4]", "value": 5000, "unit": "nM"}]}
{"substance": "Candida glabrata mating peptide pheromone …", "values": [{"measurement": "EC50 (biosensor strain, fluorescence)", "setting": "[5]", "value": 3600, "unit": "nM"}]}
{"substance": "Paracoccidioides brasiliensis mating peptide […]", "values": [{"measurement": "EC50 (biosensor strain, fluorescence)", "setting": "[6]", "value": 34, "unit": "nM"}, {"measurement": "EC50 (fluorescent reporter)", "setting": "[6]", "value": 9, "unit": "nM"}]}
{"substance": "Botrytis cinerea mating peptide pheromone …", "values": [{"measurement": "EC50 (fluorescent reporter)", "setting": "[7]", "value": "< 1", "unit": "nM"}]}
{"substance": "Lodderomyces elongisporous mating peptide pheromone …", "values": [{"measurement": "EC50 (biosensor strain, fluorescence)", "setting": "[8]", "value": 51, "unit": "nM"}]}
